In test [1] the target is T1, recombinant human IL-17 (R & D systems) (human, UniProt Q16552 20-155, limits assumed).
T1 sequence (looked up): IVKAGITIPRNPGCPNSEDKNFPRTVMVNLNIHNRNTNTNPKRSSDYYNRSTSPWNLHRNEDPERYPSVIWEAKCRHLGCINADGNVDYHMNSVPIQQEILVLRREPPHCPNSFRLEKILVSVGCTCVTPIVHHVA
The experiment in a line: cell-based or functional assay.

Test [2] concerns the target T2, mammalian cell (CHO) derived human IL-17 (human, UniProt Q16552 24-155).
T2 sequence (looked up): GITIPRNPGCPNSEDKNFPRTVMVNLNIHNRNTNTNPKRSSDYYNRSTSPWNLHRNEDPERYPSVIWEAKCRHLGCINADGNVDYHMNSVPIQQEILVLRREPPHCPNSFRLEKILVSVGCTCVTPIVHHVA
The test can be described thus: cell-based or functional assay.

The target in test [3] is T1, recombinant human IL-17 (R & D systems). The test can be described thus: BIAcore 3000, antibody captured by anti-human IgG Fc, IL-17 as analyte. The procedure: (§1) BIA (Biamolecular Interaction Analysis) was performed using a BIAcore 3000 (BIAcore AB). Affinipure F(ab′)₂ Fragment goat anti-human IgG, Fc (Jackson ImmunoResearch) was immobilised on a CM5 Sensor Chip via amine coupling chemistry to a capture level of ≈8000 response units (RUs). HBS-EP buffer (10 mM HEPES pH 7.4, 0.15 M NaCl, 3 mM EDTA, 0.005% Surfactant P20, BIAcore AB) was used as the running buffer with a flow rate of 10 μL/min. A 10 μL injection of CA028_{—}497.g2 was used for capture by the immobilised anti-human IgG-F(ab)₂. IL-17 was titrated over the captured CA028_{—}497.g2 at various concentrations at a flow rate of 30 μL/min. The surface was regenerated by a 30 μL injection of 40 mM HCl, followed by a 10 μL injection of 5 mM NaOH.
(§2) Background subtraction binding curves were analysed using the BIAevaluation software (version 3.2) following standard procedures. Kinetic parameters were determined from the fitting algorithm.
(§3) The concentrations of IL-17 from different non-human primate (NHP) species expressed transiently were estimated relative to human IL-17 and these concentrations were then used to determine the affinities of the IL-17s. The affinity was measured at IL-17 concentrations at or below 25 nM. […] The concentration of transient cynomolgus IL-17 and transient marmoset IL-17 was estimated based on equivalent human IL-17 binding.
On the technique in general: In SPR one partner is held on a chip, and binding of the other changes the refractive index at the surface.

Test [4] has as its target T3, cynomolgus monkey IL-17 (expressed transiently) (cynomolgus monkey, UniProt A0A2K5TTB0 24-155).
T3 construct: also called transient cynomolgus IL-17
T3 sequence: T2 sequence (looked up) with T3A, P8S, N34S, I77V, N78K, P104R
Described as above. How it is done:
as §1, §2, §3

Test [5] deals with T4, marmoset IL-17 (expressed transiently) (marmoset, UniProt A0ACM8QD00 24-153).
T4 construct: also called marmoset 06073130c; transient marmoset IL-17
T4 sequence: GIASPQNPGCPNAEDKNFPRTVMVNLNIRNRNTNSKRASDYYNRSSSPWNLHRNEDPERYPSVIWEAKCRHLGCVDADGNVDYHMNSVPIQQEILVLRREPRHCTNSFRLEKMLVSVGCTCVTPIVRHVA
The test is described as above. How it is done:
as §1, §2, §3

In test [6] the target is T3, cynomolgus monkey IL-17 (expressed …). The experiment in a line: BIAcore 3000, antibody captured by anti-human IgG Fc, IL-17 as analyte; analyte concentration estimated. How it is done: as §1, §2, §3
Test [7] deals with T4, marmoset IL-17 (expressed transiently). Described as above. The procedure:
as §1, §2, §3

Test [8] deals with T3, cynomolgus monkey IL-17 (expressed …). The test can be described thus: BIAcore 3000, antibody captured by anti-human IgG Fc, IL-17 as analyte; analyte concentration estimated; transient cynomolgus IL-17, concentration estimated. How it is done: as §1, §2, §3

These results are taken from US20100086538A1 (UCB, published 2010).

Residue numbers refer to the chain shown, from its start. Names may count otherwise. “And” between values parts separate entries of the source, which are not always exact repeats. Identical values can stand only once.

B1: antibody CA028-497.g2 (antibody, human IgG4 S228P, kappa, V domains shown)
VH: EVQLVESGGGLVKPGGSLRLSCAASGVIFSDYYMAWVRQAPGKGLEWVASINFNADISYYRESVKGRFTISRDDSKNTLYLQMNSLKTEDTAVYYCTTDANRQNYDWFAYWGQGTLVTVSS
VL: AIQLTQSPSSLSASVGDRVTITCKASESVSSSMYSYMHWYQQKPGKAPKLLIYRASNLESGVPSRFSGSGSGTDFTLTISSLQPEDFATYYCQQSWTAPRTFGQGTKVEIKR
notes: Humanised IgG4 (S241P) kappa antibody made in CHO cells; also called CA048-497.g2; CA048 497.g2
For the molecule B1, the “IC50, inhibition of IL-17 induced IL-6 production in Hela cells” value in test [1] was 51 ng/mL and 0.34 nM; in test [2], 103 ng/mL and 0.7 nM. In addition, the Kd (commonly the concentration at which binding is half-saturated) was 6.28 pM and 6.3 pM in test [3]; 10.7 pM in test [6]; 12.9 pM in test [7]. Moreover, the koff – broadly, the rate constant with which the complex falls apart – in test [3] was determined as 7.38e-06 s⁻¹; in test [4] it was 1.68e-05 s⁻¹; in test [5], 1.46e-05 s⁻¹. In addition, the figures for the kon in test [3], in test [7] and in test [8] were 1.86e+06 M⁻¹ s⁻¹, 1.13e+06 M⁻¹ s⁻¹ and 1.57e+06 M⁻¹ s⁻¹, respectively.
